From patent US12715909 (ENTHERA S R L, dated 2026) come the findings set out here.

Experiment in all cases: ELISA, scFv, secondary screening
In general terms: In an ELISA, binding on a coated surface is turned into a signal by an enzyme label.

For test [1], the target named is T1, human IGFBP5 (human, UniProt P24593 21-272).
T1 construct: Bought protein; in BLI it was in solution; also called hIGFBP-5
Here is the method: (§1) At the end of the discovery process, each selection output was screened for antigen-specific antibodies and the binding characteristics of monoclonal antibody clones was analysed. For this purpose, 3072 single colonies were used for scFv antibody production. […] 192 of those ELISA positive clones were selected for a secondary screening. For that purpose, a second batch of scFv were produced and tested on a broader panel of antigens: Streptavidin+biotinylated human IGFBP5, Streptavidin+biotinylated murine IGFBP5, Streptavidin, BSA, Human IGFBP1, Human IGFBP2, Human IGFBP3, Human IGFBP4, Human IGFBP5 and Human IGFBP6. […] Binding to human IGFBP1, human IGFBP2, human IGFBP3, human IGFBP4 and human IGFBP6 was not detected. […] The scFv DNA sequence was amplified by PCR and cloned into YUMAB's mammalian scFv-Fc expression vector, resulting in a genetic fusion of the scFv with a human IgG4 Fc. Bacterial clones with a correctly cloned scFv gene were used for isolation of transfection grade DNA. The DNA was used for the transient transfection of HEK cells which produced and secreted the antibody into the culture medium. The antibodies were purified by affinity chromatography (Protein A) and re-buffered in PBS. The protein concentration was determined by UV/VIS spectrometry and purity was checked by Coomassie staining. 13 of the 15 antibodies could be successfully produced in the scFv-Fc format.

Test [2] deals with T2, mouse IGFBP5 (mouse, UniProt Q07079 20-271).
T2 construct: Bought protein; in solution in BLI; also called mIGFBP-5; murine IGFBP5
T2 sequence (Q07079 20-271 limits assumed): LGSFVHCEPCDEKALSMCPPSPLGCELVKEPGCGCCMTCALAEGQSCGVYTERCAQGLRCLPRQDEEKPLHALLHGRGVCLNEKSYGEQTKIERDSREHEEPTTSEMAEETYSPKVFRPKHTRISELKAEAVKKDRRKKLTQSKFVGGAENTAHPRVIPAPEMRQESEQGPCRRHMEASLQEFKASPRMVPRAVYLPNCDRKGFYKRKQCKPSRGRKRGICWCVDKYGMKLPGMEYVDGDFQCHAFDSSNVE
The method, then:
as §1

In test [3] the target is T3, human IGFBP1 (human, UniProt P08833 26-259).
T3 construct: Bought protein
T3 sequence (looked up): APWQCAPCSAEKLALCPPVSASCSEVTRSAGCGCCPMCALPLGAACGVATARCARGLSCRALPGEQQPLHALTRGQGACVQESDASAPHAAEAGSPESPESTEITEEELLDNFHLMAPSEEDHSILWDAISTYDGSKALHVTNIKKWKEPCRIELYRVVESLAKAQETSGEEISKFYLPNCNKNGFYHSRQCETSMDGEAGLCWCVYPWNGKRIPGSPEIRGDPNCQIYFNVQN
Here is the method: as §1

The target in test [4] is T4, human IGFBP2 (human, UniProt P18065 37-325, limits assumed).
T4 construct: Bought protein
T4 sequence (looked up): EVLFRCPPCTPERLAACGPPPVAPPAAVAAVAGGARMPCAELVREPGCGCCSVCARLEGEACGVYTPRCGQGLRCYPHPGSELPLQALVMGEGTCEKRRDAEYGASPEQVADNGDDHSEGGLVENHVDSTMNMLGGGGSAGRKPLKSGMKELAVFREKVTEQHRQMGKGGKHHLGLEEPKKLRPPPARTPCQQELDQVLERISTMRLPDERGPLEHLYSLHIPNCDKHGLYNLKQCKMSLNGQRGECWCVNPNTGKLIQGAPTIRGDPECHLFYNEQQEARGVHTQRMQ
The method, then: as §1

In test [5] the target is T5, human IGFBP3 (human, UniProt P17936 28-291).
T5 construct: Bought protein
T5 sequence (P17936 28-291 limits assumed): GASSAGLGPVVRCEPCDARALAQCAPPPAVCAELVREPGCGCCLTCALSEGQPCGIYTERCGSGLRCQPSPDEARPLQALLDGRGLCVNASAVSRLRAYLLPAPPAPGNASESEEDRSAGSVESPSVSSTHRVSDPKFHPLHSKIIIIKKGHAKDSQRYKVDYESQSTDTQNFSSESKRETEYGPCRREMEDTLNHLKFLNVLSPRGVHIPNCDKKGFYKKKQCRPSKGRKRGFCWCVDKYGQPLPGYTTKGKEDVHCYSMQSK
Here is the method: as §1

For test [6], the target named is T6, human IGFBP4 (human, UniProt P22692 22-258).
T6 construct: Bought protein
T6 sequence (looked up): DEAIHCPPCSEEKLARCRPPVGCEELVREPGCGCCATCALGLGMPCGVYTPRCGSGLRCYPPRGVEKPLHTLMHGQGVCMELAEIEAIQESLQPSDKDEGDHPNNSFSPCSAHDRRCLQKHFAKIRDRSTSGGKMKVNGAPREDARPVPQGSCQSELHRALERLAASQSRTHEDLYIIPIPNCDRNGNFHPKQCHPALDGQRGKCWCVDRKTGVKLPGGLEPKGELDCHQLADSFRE
The method, then: as §1

In test [7] the target is T7, human IGFBP6 (human, UniProt P24592 28-240, limits assumed).
T7 construct: Bought protein
T7 sequence (looked up): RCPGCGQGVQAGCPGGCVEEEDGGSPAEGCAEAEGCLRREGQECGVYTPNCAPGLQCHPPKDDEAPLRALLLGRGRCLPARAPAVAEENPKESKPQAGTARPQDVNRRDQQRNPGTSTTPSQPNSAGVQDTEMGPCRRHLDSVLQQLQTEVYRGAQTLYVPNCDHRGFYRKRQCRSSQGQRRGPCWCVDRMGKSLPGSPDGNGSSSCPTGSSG
The method, then: as §1

T1 sequence (P24593 21-272 limits assumed): as the sequence (Q07079 20-271 limits assumed) above, with G87R, T90V, V116I, V157I, P159S, F183L, A245T counted along it

B1: C11 scFv (scFv, V domains shown)
VH: EVQLVESGGGVVQPGRSLRLSCAASGFTFSSYGMHWVRQAPGKGLEWVAVISYDGSNKYYADSVKGRFTISRDNSKNTLYLQMNSLRAEDTAVYYCARGDYSDTSGTDFFQHWGQGTQVTVSS
VL: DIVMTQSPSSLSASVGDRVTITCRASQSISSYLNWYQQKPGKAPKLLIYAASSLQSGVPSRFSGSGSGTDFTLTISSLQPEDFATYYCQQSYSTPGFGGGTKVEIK
notes: scFv as screened by ELISA
Regarding B1, the binding result in test [1] was “binds”; in test [2], “binds”; in test [3], “no binding”; in test [4] it was “no binding”; in test [5] it was “no binding”; in test [6], “no binding”. The binding result in test [7] is “no binding”.

B2: B11 scFv (scFv, V domains shown)
VH: QVQLVQSGAEVKKPGSSVKVSCKASGGTFSSYAISWVRQAPGQGLEWMGGIIPIFGTANYAQKFQGRVTITADKSTSTAYMELSSLRSEDTAVYYCARNVRLPGWFDPWGQGTLVTVSS
VL: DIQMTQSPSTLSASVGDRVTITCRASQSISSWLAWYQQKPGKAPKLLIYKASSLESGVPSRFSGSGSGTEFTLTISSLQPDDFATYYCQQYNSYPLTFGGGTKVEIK
As for B2, the binding result is “binds” in test [1]; “binds” in test [2]; “no binding” in test [3]; “no binding” in test [4]; “no binding” in test [5]; “no binding” in test [6]. Further, the binding result in test [7] is on record as “no binding”.

B3: B09 scFv (scFv, V domains shown)
VH: QVQLVQSGAEVKKPGASVKVSCKASGYTFTSYGISWVRQAPGQGLEWMGWISAYNGNTNYAQKLQGRVTMTTDTSTSTAYMELRSLRSDDTAVYYCARDLAVGTHGDYWGQGTLVTVSS
VL: QSALTQPASVSGSPGQSITISCTGTSSDVGGYNYVSWYQQHPGKAPKLMIYEVSNRPSGVSNRFSGSKSGNTASLTISGLQAEDEADYYCSSYTSSSTLEVVFGGGTKLTVL
notes: scFv as screened by ELISA
For B3, the binding result in test [3], in test [4], in test [5], in test [6] and in test [7] was “no binding” throughout.

B4: C02 scFv (scFv, V domains shown)
VH: QVQLVQSGAEVKKPGASVKVSCKASGYTFTSYGISWVRQAPGQGLEWMGWISAYNGNTNYAQKLQGRVTMTTDTSTSTAYMELRSLRSDDTAVYYCARGRGVIDYWGQGTLVTVSS
VL: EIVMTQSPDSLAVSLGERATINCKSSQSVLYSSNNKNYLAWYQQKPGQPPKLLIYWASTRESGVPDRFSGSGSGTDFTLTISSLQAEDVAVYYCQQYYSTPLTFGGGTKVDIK
notes: scFv as screened by ELISA
For the molecule B4, the binding result in test [1] was “binds”; in test [2] it was “binds”; in test [3], “no binding”; in test [4], “no binding”; in test [5], “no binding”; in test [6], “no binding”. The binding result in test [7] is on record as “no binding”.

B5: F05 scFv (scFv, V domains shown)
VH: QVQLVQSGAEVKKPGASVKVSCKASGYTFTSYGISWVRQAPGQGLEWMGWISAYNGNTNYAQKLQGRVTMTTDTSTSTAYMELRSLRSDDTAVYYCARGRGSFDPWGQGTLVTVSS
VL: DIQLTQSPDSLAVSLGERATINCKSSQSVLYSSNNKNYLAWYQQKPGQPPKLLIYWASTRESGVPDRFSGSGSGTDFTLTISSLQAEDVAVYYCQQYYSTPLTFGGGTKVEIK
notes: scFv as screened by ELISA
Take B5: the binding result was “binds” in test [1]; “binds” in test [2]; “no binding” in test [3]; “no binding” in test [4]; “no binding” in test [5]; “no binding” in test [6]. Further, the binding result in test [7] is “no binding”.

B6: D10 scFv (scFv, V domains shown)
VH: QVQLVQSGAEVKKPGASVKVSCKASGYTFTSYGISWVRQAPGQGLEWMGWISAYNGNTNYAQKLQGRVTMTTDTSTSTAYMELRSLRSDDTAVYYCARDRYLGWFDPWGQGTLVTVSS
VL: QSALTQPASVSGSPGQSITISCTGTSSDVGGYNYVSWYQQHPGKAPKLMIYEVSNRPSGVSNRFSGSKSGNTASLTISGLQAEDEADYYCSSYTSSSTPYVFGTGTKLTVL
notes: scFv as screened by ELISA
On to B6, for which the binding result in test [1] is recorded as “binds”; in test [2], “binds”; in test [3], “no binding”; in test [4], “no binding”; in test [5] it was “no binding”; in test [6], “no binding”. Also, the binding result in test [7] is on record as “no binding”.
